The values that follow come from patent US20020090382A1 (UNIVERSITY OF PITTSBURGH OF THE COMMONWEALTH SYSTEM OF …, published 2002).

The target in one assay is T1, HveC(346t) (UniProt Q15223 31-346).
T1 construct: Purified soluble receptor coated on ELISA plates; also called recombinant HveC; soluble gD receptor HveC
T1 sequence: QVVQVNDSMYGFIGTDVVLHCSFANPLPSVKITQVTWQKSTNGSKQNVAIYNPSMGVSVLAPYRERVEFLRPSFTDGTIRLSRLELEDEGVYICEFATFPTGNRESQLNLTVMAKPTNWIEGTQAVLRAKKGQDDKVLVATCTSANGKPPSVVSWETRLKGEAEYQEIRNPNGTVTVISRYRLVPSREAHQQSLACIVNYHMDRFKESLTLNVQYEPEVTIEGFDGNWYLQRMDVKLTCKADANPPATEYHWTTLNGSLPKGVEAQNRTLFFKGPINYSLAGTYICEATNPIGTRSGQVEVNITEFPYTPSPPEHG
Put plainly: ELISA, peptide on coated HveC(346t), antiserum R11. (In general: In an ELISA, binding on a coated surface is turned into a signal by an enzyme label.)

The next assay has as its target T2, HveA(200t) (UniProt Q92956 39-200).
T2 construct: Purified soluble receptor coated on ELISA plates; also called recombinant HveA; soluble gD receptor HveA
T2 sequence: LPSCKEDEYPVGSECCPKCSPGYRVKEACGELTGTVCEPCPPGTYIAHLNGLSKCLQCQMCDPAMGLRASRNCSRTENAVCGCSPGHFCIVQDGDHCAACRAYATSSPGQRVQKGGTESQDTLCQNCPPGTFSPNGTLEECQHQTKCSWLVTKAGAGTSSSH
Put plainly: ELISA, peptide on coated HveA(200t), antiserum R11.

For ASLKMADPNRFRGKDLPVLDQ (synthetic peptide) [Polypeptide A1], the binding result in the assay with HveC(346t) was “no binding (tested: between 1 µM and 1000 µM)”; with HveA(200t) it was “no binding (tested: between 1 µM and 1000 µM)”.
